Experimental data: PMC4434323

The sequences below were run against gei-3 (T22H6.6) (Caenorhabditis elegans) (UniProt Q0G833).
gei-3 (T22H6.6) (Caenorhabditis elegans), sequence (Q0G833 entry or part of it): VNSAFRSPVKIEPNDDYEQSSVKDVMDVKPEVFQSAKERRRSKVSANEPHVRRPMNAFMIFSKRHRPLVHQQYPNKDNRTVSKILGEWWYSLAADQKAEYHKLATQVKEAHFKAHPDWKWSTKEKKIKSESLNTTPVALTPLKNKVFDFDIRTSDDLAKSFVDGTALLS

Sequence | binding signal (PBM E-score (-0.5 to 0.5))
ATGAATGA (double strand) [8-mer ATGAATGA] | 0.489
CATTCATA (double strand) [8-mer CATTCATA] | 0.474
ATCAATGA (double strand) [8-mer ATCAATGA] | 0.485
CCCATTCA (double strand) [8-mer CCCATTCA] | 0.478
TCAATGGA (double strand) [8-mer TCAATGGA] | 0.473
AAATGAAT (double strand) [8-mer AAATGAAT] | 0.472
TGAATGAA (double strand) [8-mer TGAATGAA] | 0.491
TCCATTCA (double strand) [8-mer TCCATTCA] | 0.48
ATCAATGG (double strand) [8-mer ATCAATGG] | 0.477
TCAATTGA (double strand) [8-mer TCAATTGA] | 0.484
TGAATTAA (double strand) [8-mer TGAATTAA] | 0.474
TCAATGAA (double strand) [8-mer TCAATGAA] | 0.485
ATGAATGG (double strand) [8-mer ATGAATGG] | 0.489
AATGAATG (double strand) [8-mer AATGAATG] | 0.481
CATTGATA (double strand) [8-mer CATTGATA] | 0.472

Each sequence was assayed against T1, tbx-38 (C24H11.3) (Caenorhabditis elegans) (UniProt Q9XVD5).
T1 sequence: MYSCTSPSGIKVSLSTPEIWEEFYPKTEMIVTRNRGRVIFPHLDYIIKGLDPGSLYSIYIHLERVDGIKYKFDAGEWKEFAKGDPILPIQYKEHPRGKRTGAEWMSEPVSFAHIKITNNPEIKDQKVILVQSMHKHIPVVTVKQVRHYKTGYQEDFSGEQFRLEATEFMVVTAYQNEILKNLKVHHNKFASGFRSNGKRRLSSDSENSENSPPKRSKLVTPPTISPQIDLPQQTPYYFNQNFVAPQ

Sequence | binding signal (PBM E-score (-0.5 to 0.5))
AGGTGTTA (double strand) [8-mer AGGTGTTA] | 0.494
GGTGCGAA (double strand) [8-mer GGTGCGAA] | 0.494
AAGTGTGA (double strand) [8-mer AAGTGTGA] | 0.494
GTGTGAAA (double strand) [8-mer GTGTGAAA] | 0.483
GGGTGCGA (double strand) [8-mer GGGTGCGA] | 0.485
GGGTGTGA (double strand) [8-mer GGGTGTGA] | 0.487
GAGTGTGA (double strand) [8-mer GAGTGTGA] | 0.484
ATTCGCAC (double strand) [8-mer ATTCGCAC] | 0.489
AGGTGTGA (double strand) [8-mer AGGTGTGA] | 0.498
ATTCACAC (double strand) [8-mer ATTCACAC] | 0.494
GGTGTGAA (double strand) [8-mer GGTGTGAA] | 0.497
GTGTGAAC (double strand) [8-mer GTGTGAAC] | 0.492
AGTGTGAA (double strand) [8-mer AGTGTGAA] | 0.496
AGGTGCGA (double strand) [8-mer AGGTGCGA] | 0.49

The sequences below were run against T2, tbx-43 (Y46E12A.4) (Caenorhabditis elegans) (UniProt Q1T6W8).
T2 sequence: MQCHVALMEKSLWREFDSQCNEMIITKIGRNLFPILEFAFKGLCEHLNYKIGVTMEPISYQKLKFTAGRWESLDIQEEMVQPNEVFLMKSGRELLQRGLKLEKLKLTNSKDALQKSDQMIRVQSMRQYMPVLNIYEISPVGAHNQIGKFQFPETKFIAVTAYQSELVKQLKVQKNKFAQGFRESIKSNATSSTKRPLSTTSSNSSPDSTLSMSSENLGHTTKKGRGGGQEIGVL

Sequence | binding signal (PBM E-score (-0.5 to 0.5))
AGGTGTTA (double strand) [8-mer AGGTGTTA] | 0.497
GGTGCGAA (double strand) [8-mer GGTGCGAA] | 0.48
GTGTGAAA (double strand) [8-mer GTGTGAAA] | 0.494
GGGTGTGA (double strand) [8-mer GGGTGTGA] | 0.49
GGTGTCAA (double strand) [8-mer GGTGTCAA] | 0.495
GGGTGTCA (double strand) [8-mer GGGTGTCA] | 0.484
AGGTGTGA (double strand) [8-mer AGGTGTGA] | 0.499
ATTCACAC (double strand) [8-mer ATTCACAC] | 0.489
AGGTGTCA (double strand) [8-mer AGGTGTCA] | 0.497
GGTGTGAA (double strand) [8-mer GGTGTGAA] | 0.499
GTGTGAAC (double strand) [8-mer GTGTGAAC] | 0.485
AGTGTGAA (double strand) [8-mer AGTGTGAA] | 0.494
ATCACACC (double strand) [8-mer ATCACACC] | 0.486
AGGTGCGA (double strand) [8-mer AGGTGCGA] | 0.48

What follows are sequences tested against atf-7 (C07G2.2) (Caenorhabditis elegans) (UniProt Q86MD3).
atf-7 (C07G2.2) (Caenorhabditis elegans), sequence (Q86MD3 339-508): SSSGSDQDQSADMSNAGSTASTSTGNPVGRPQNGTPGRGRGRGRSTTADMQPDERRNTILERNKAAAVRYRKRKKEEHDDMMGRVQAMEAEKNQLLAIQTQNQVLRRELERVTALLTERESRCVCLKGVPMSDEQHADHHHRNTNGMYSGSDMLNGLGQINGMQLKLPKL

Sequence | binding signal (PBM E-score (-0.5 to 0.5))
ACGTCATG (double strand) [8-mer ACGTCATG] | 0.496
AACGTCAT (double strand) [8-mer AACGTCAT] | 0.495

Each sequence was assayed against T3, hlh-12 (C28C12.8) (Caenorhabditis elegans) (UniProt Q18277).
T3 sequence: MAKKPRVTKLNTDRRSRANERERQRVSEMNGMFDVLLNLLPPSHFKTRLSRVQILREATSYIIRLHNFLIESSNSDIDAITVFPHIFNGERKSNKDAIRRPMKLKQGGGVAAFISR

Sequence | binding signal (PBM E-score (-0.5 to 0.5))
AACAGATG (double strand) [8-mer AACAGATG] | 0.468
AACAGCTG (double strand) [8-mer AACAGCTG] | 0.481
CAGCTGTC (double strand) [8-mer CAGCTGTC] | 0.479
ACATCTGG (double strand) [8-mer ACATCTGG] | 0.481
CACAGCTG (double strand) [8-mer CACAGCTG] | 0.475
AACATCTG (double strand) [8-mer AACATCTG] | 0.481
ACAGATGT (double strand) [8-mer ACAGATGT] | 0.478
ACAGATGG (double strand) [8-mer ACAGATGG] | 0.478
ACAGCTGT (double strand) [8-mer ACAGCTGT] | 0.496
ACATATGT (double strand) [8-mer ACATATGT] | 0.476
ACCAGCTG (double strand) [8-mer ACCAGCTG] | 0.456
ACCATCTG (double strand) [8-mer ACCATCTG] | 0.482
ACAGCTGG (double strand) [8-mer ACAGCTGG] | 0.481
AACATATG (double strand) [8-mer AACATATG] | 0.465

What follows are sequences tested against T4, atf-5 (T04C10.4) (Caenorhabditis elegans) (UniProt Q22156).
T4 sequence: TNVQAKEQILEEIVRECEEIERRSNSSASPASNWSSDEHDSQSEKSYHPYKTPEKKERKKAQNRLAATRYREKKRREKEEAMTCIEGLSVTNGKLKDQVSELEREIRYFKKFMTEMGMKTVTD

Sequence | binding signal (PBM E-score (-0.5 to 0.5))
TGACATCA (double strand) [8-mer TGACATCA] | 0.468

What follows are sequences tested against T5, tbx-39 (Y73F8A.16) (Caenorhabditis elegans) (UniProt Q9NA56).
T5 sequence: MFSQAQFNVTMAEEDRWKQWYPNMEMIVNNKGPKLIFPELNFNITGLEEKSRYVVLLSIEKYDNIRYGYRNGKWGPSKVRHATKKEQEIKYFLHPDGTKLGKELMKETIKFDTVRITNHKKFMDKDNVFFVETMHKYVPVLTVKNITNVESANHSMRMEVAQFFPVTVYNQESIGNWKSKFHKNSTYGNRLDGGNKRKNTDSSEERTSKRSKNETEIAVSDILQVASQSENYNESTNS

Sequence | binding signal (PBM E-score (-0.5 to 0.5))
TGTACCAA (double strand) [8-mer TGTACCAA] | 0.485
CCAAGTTC (double strand) [8-mer CCAAGTTC] | 0.477
CTACCAAG (double strand) [8-mer CTACCAAG] | 0.473
AACTTGGA (double strand) [8-mer AACTTGGA] | 0.473
AAACTTGG (double strand) [8-mer AAACTTGG] | 0.487
CTAAGTTA (double strand) [8-mer CTAAGTTA] | 0.48
AACTTGGT (double strand) [8-mer AACTTGGT] | 0.496
AACTTCGC (double strand) [8-mer AACTTCGC] | 0.467
ACTTGGTA (double strand) [8-mer ACTTGGTA] | 0.472
CCAAGTTA (double strand) [8-mer CCAAGTTA] | 0.495
AACTTAGC (double strand) [8-mer AACTTAGC] | 0.493
CTTGGCAC (double strand) [8-mer CTTGGCAC] | 0.477
ACTTGGCA (double strand) [8-mer ACTTGGCA] | 0.492
AACTTAGT (double strand) [8-mer AACTTAGT] | 0.479
AACTTGGC (double strand) [8-mer AACTTGGC] | 0.497

These sequences were tested against T6, zip-3 (W07G1.3) (Caenorhabditis elegans) (UniProt Q9XUK2).
T6 sequence: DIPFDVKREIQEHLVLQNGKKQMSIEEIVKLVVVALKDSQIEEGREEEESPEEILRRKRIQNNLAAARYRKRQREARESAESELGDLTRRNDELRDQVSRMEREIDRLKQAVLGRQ

Sequence | binding signal (PBM E-score (-0.5 to 0.5))
GATGACGC (double strand) [8-mer GATGACGC] | 0.493
TGACATCA (double strand) [8-mer TGACATCA] | 0.49
ATATGATG (double strand) [8-mer ATATGATG] | 0.486
ATGACGCG (double strand) [8-mer ATGACGCG] | 0.488
ATATGACG (double strand) [8-mer ATATGACG] | 0.493
ACGTCATG (double strand) [8-mer ACGTCATG] | 0.486
AACGTCAT (double strand) [8-mer AACGTCAT] | 0.486
AGATGACG (double strand) [8-mer AGATGACG] | 0.487

These sequences were tested against T7, skn-1 (T19E7.2) (Caenorhabditis elegans) (UniProt P34707).
T7 sequence: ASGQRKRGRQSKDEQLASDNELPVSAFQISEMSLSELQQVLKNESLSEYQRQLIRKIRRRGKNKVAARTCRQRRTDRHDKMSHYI

Sequence | binding signal (PBM E-score (-0.5 to 0.5))
GATGACTA (double strand) [8-mer GATGACTA] | 0.489
ATATCATC (double strand) [8-mer ATATCATC] | 0.485
AATGTCAT (double strand) [8-mer AATGTCAT] | 0.487
